From US20240036057A1, “DNA APTAMERS FOR THE DETECTION OF MONOMERIC CRP” (Universiteit Hasselt, published 2024)

T1: monomeric C-reactive protein (mCRP) (Homo sapiens, UniProt P02741 P02741:19-224)
T1 sequence: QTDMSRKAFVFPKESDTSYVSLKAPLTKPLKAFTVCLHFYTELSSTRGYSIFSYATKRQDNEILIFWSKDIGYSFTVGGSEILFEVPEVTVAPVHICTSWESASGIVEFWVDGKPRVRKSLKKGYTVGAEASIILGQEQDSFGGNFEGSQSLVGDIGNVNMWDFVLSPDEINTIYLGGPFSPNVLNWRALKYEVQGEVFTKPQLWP

B1: AmC4 (ssDNA)
DNA: GCACCAGCATATTCGATTGGGAGGTGTGAACGTTATGTGGTAGAGAGATGGGTGGTGGGGCTAGTAGGTGCATCAG
B2: AmC3 (ssDNA)
DNA: GCACCAGCATATTCGATTGGGAGCGCGGGGGAGAGTAGTGGGGAACGGTGGAGAGTTGGGCTAGTAGGTGCATCAG
B3: AmC2 (ssDNA)
DNA: GCACCAGCATATTCGATTGTGGCGGGTTGTGAAGGGTGGAGTATGGTCGTGTTGGTTGGGCTAGTAGGTGCATCAG

What was measured:
[1] = molecular target: T1, monomeric C-reactive protein (mCRP); experiment: SPR; 200 nM aptamer; 75 mM HEPES, 0.15 M NaCl pH 7.4
Protocol: Regeneration of the CM4 chip flow cells was achieved by applying 10 mM NaOH with 120 sec followed by several washing steps with 1× aptamer binding buffer. SPR binding concentrations were obtained as a resonance unit RU (1 RU=1 pg/mm² of the sensor surface) by calculating the binding units of antibody/aptamer and mCRP and correcting for the background signal observed in the reference channel.

[2] = molecular target: T1, monomeric C-reactive protein (mCRP); experiment: SPR; mCRP immobilized on CM4, pCRP reference cell; 1:1 Langmuir; ka 4.242E+03 1/Ms, kd 6.41E-04 1/s; aptamer binding buffer pH 7.4
Protocol: On the contrary the aptamer was very stable regeneration steps and therefore a multicycle kinetics analysis was performed for the evaluation of reaction kinetics of the aptamer. Pentameric CRP is immobilized in the reference flow cell and mCRP in the active cell at a low immobilization level (70 RU) to achieve an optimal kinetic analysis on CM4 biosensor chips. The kinetic analysis was performed with increasing concentrations of aptamer AmC2 (0-500 nM) applying for 200 sec of association and 200 sec dissociation at flow rate of 300 μl/min. A regeneration step of 120 sec using 1 M NaOH was applied between the injections of different concentrations. The Biacore evaluation software was used in the analysis for estimation of affinity rate constant by fitting the obtained binding sensogram using standard mathematical 1:1 Langmuir model.
The kinetic parameters of the antibody 3H12 and aptamer AmC2 were evaluated using the inbuilt kinetics modules of the Biacore T200 SPR (FIG. 2). […] The strength of the binding interaction between the ligand and target analyte can be measured based on the affinity constant value KD. […] The binding kinetics of the ligand to the target analyte is a time dependent interaction and in SPR this is measured as the association and dissociation constants (ka and kd). […]

Row | Binder | binding result [1] | Kd [2] [nM]
1 | B1 | binds | –
2 | B2 | binds | –
3 | B3 | – | 151
